Consider 9 molecules from patent US20140120109A1 (Regeneron, published 2014).

T1: Fhm, hTL1A(Q167R), soluble, E. coli-expressed, residues 72-251 of SEQ ID NO:246 (human, UniProt O95150 72-251)
T1 construct: with or without N-terminal Met
T1 chain: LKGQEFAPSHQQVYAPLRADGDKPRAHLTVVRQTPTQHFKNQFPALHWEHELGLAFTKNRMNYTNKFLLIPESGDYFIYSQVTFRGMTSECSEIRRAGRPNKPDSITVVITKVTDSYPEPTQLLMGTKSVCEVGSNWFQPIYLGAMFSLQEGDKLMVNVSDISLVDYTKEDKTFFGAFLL

T2: cynomolgus monkey TL1A, soluble, E. coli-expressed, residues 72-251 of SEQ ID NO:248 (cynomolgus monkey (Macaca fascicularis), UniProt O95150 72-251 (human entry))
T2 construct: with or without N-terminal Met; also called MfTL1A (E. Coli)
T2 chain: T1 chain with F39L, I78V, R96Q

T3: rat TL1A, soluble, CHO-expressed, residues 76-252 of SEQ ID NO:258 with N-terminal His6-tag (rat, UniProt Q8K3Y7 76-252)
T3 construct: also called rTL1A; rTL1A (CHO)
T3 sequence: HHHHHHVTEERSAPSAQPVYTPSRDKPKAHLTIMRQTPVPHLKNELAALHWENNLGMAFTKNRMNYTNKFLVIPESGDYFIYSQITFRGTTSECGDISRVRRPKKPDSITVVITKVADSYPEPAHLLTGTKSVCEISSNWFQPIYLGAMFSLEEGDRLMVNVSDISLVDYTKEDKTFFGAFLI

T4: mouse TL1A, soluble, E. coli-expressed, residues 76-252 of SEQ ID NO:250 (mouse, UniProt Q5UBV8 76-252)
T4 construct: with or without N-terminal Met; also called mTL1A (E. Coli)
T4 sequence: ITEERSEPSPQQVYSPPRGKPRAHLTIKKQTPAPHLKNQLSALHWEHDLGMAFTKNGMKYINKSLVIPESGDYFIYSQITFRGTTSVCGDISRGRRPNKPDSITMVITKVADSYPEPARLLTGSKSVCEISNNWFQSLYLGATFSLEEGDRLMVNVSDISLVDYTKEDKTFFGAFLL

T5: Fhm, hTL1A(Q167R), soluble, CHO-expressed, residues 72-251 of SEQ ID NO:246 (human, UniProt O95150 72-251)
T5 construct: also called Fhm (CHO); FHM (CHO)
T5 chain: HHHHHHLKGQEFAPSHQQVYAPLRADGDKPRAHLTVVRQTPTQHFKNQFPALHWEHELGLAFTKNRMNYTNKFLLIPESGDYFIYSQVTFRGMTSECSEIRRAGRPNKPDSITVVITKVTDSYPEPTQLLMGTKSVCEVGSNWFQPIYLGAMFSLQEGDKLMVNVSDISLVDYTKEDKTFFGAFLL

B1: H4H1742P (antibody, human IgG4 S228P, V domains shown)
VH: EVQLVESGGGLVQPGGSLRLSCAASGFTFSNYVMNWVRQAPGKGLEWVSVISGSGGSTHYADSVKGRFTISRDNSKDALYLQMNSLRAEDTAVYYCAKGPLEAYYYYNGMDVWGQGTTVTVSS
VL: DIQLTQSPSFLSASVGDRVTITCWASQAISSYLAWYQHKPGRAPKLLIYSTSTLQSGVPSRFSGSGSGTEFTLTISSLQPEDFATYYCQQLNSYPTFGQGTKLEIK
B2: H4H1750P (antibody, human IgG4 S228P, V domains shown)
VH: QVQLVESGGGVVQPGRSLRLSCVASGFTFSNYGMHWVRQAPGKGLEWVAVISYDGNNDLYSDSVKGRFTISRDNAKNALSLQMTSLRAEDTAVYYCARDSTMTPYYYHGIDVWGQGTTVTVSA
VL: DIQMTQSPSSLSASVGDRVTITCRASQDIRNDLGWYQQKPGKAPKRLIYAASSLQSGVPSRFSGSGSGTDFTLTISSLQPEDFATYYCLQHNSYPPTFGQGTKVEIK
B3: H4H1752P (antibody, human IgG4 S228P, V domains shown)
VH: EVQLVESGGGLVQPGGSLRLSCSASGFTFSKYVMTWVRQAPGKGLEWVSAIGPTGRTTEYADSVQGRFTISRDNSMNTVFLHLNSLTAEDTAEYYCAKMFDWNYDVYFDSWGQGTLVTVSS
VL: DIQMTQSPSILSASVGDRVTITCRTSQSISNWLAWYQQKPGKAPNLLIYKASSLESGVPSRFSGSGSGTEFTLTISSLQPDDFATYYCQQYYRYWTFGQGTKVEIK
B4: H4H1725P (antibody, human IgG4 S228P, V domains shown)
VH: QVQLVQSGAEVKKPGASVKVSCKASGYTFTGYYMHWVRQAPGQGLEWMGWIKPKSGGTNYVQKFQGRVTMTRDTSINTAYMELNNLKSDDTAVYYCATGGSQDASDFWGQGTMVTVSS
VL: DIQMTQSPSSVSASVGGRVTITCRASQDISIWLAWYQQKPGKAPNLLIYAASSLQSGVPSRFSGSGSGTDFTLTISSLQPEDFATYYCQQADSFPLTFGGGTKVEIK
B5: H4H1719P (antibody, human IgG4 S228P, V domains shown)
VH: EVQLVESGGGLVQPGRSLRLSCVASGFTFQDYAMHWVRQAPGKGLEWVSGINWISDDMGYADSVMGRFTISRDNAKNSLYLQMDSLRAEDTALYYCAKDKGLRFLDYVMDVWGQGTTVTVSA
VL: DIVMTQSPLSLPVTPGEPASISCRSTQSLLHRNGHNYLHWYLHKPGQSPQLLIHLGSNRASGVPDRFSGSGSGTDFTLKISRVEAEDVGVYYCMQALQTPYTFGQGTKLEIK
B6: H4H1738P (antibody, human IgG4 S228P, V domains shown)
VH: EVQLVESGGALVKPGGSLRLSCAVSGFTFINDWMNWVRQAPGKGLEWVGRIKSTTDGGTTDDAAPVKGRFTISRDDSKNTLYLQMNSLKTEDTAVYYCTRDRNRQRNYFYDGMDVWGQGTTVTVSA
VL: B5 VL with L9V, T26S, S28R, R32N, H35N, H39D, H43Q, H54Y, I80V
B7: H4H1804N (antibody, human IgG4 S228P, V domains shown)
VH: QVQLHQWGAGLLKPSETLSLTCAVSGVSFSDYHWAWIRQSPGKGLEWIGDINHRGRTNYNPSLKSRVTISLDTSGNPFSLKLTSVTAADTAVYYCARDFPNWVFDSWGQGILVTVSS
VL: EIVLSQSPGTLSLSPGERATLSCRASQSVSSSFLAWYQQYPGQAPRLLIYGASRRATGIPDRFRGSGSGTDFTLTISRLEPEDFAVYYCQQYGSSPLTFGGGTKVENK
notes: human IgG4(S108P) form of H2M1804N
B8: H4H1817N (antibody, human IgG4 S228P, V domains shown)
VH: QVQLQQWGAGLLKPSETLSLTCAVSGGSFSDYFWTWIRQPPGKGLEWIGEISHSGRTNYNPSLKSRVTISVDTSMSQFSLKMTSVTAADSAVYYCARDYPNWVFDYWGQGTLVTVSS
VL: EIELTQSPGTLSLSPGEGATLSCRASQSVFNSYLAWYQQKPGQAPRLLIYGASRRATGIPDRFSGSGSGTDFTLTISRLEPGDFAVYFCQQYGNSPLTFGGGTKVEIK
notes: human IgG4(S108P) form of H2M1817N
B9: H4H1704N (antibody, human IgG4 S228P, V domains shown)
VH: EVQLVESGGGLVQPGGSLRLSCAVSGFTFSSYWMSWVRQAPGKGLEWVANIKEDGSEKNYVDSVKGRFTLSSDNAKNSLYLQMNSLRAEDTAVYYCAREDYDSYYKYGMDVWGQGTAVIVSS
VL: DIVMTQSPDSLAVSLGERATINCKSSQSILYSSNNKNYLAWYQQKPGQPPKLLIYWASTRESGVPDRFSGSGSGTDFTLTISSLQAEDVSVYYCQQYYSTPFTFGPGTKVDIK
notes: human IgG4(S108P) form of H2M1704N

Residue numbers refer to the chain shown, from its start. In names and notes the source's numbering stands.

The target in the first assay is T1, Fhm, hTL1A(Q167R), soluble, E. …. Put plainly: SPR 25C, mAb captured. The procedure, abridged: (§1)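 Biacore T100 SPR with captured mAb and soluble TL1A/Fhm analyte; ka and kd fitted to a 1:1 model assuming monomeric TL1A. KD = kd/ka; t1/2 (min) = ln2/(60·kd).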
In the case of B1, binding was put at a Kd of 0.437 nM and the t1/2 is 2.15 h.

As to B2, the affinity, expressed as Kd, was 0.204 nM and the t1/2 amounted to 10.4 h.

With B3, the binding result is recorded as “no binding (tested: up to 100 nM)”.

As to B4, the dissociation constant Kd turned out to be 0.0289 nM and the t1/2 turned out to be 7.45 h.

For B5, the Kd was found to be 0.109 nM and the t1/2 is 1.6 h.

For B6, the Kd was found to be 1.02 nM and the t1/2 amounted to 0.317 h.

Another assay deals with T2, cynomolgus monkey TL1A, soluble, E. …. Put plainly: SPR 25C, mAb captured. The procedure, abridged: as §1
Molecule B1 gave a Kd of 0.593 nM and a t1/2 of 1.62 h.

B2 came in with a Kd of 52.7 nM and a t1/2 of 0.0667 h.

For the molecule B3, the equilibrium dissociation constant (Kd) was 0.274 nM and the t1/2 is 2.03 h.

With B4, the affinity, expressed as Kd, was 0.0637 nM and the t1/2 was 4.87 h.

Turning to B5, the affinity, expressed as Kd, was 0.242 nM and the t1/2 came to 1.32 h.

B6 gave a Kd of 1.36 nM and a t1/2 of 0.3 h.

The target of a further assay is T1, Fhm, hTL1A(Q167R), soluble, E. …. Put plainly: SPR 37C, mAb captured. The procedure, abridged:
as §1
Consider B1, for which the Kd was determined as 0.696 nM and the t1/2 was 0.75 h.

In turn, B2 yielded a dissociation constant Kd of 0.244 nM and a t1/2 of 5.58 h.

As to B4, the Kd worked out at 0.0436 nM and the t1/2 came to 3.23 h.

The molecule B5 returned a dissociation constant Kd of 0.174 nM and a t1/2 of 0.7 h.

For the molecule B6, the dissociation constant Kd was found to be 3.1 nM and the t1/2 worked out at 0.0667 h.

In a further assay the target is T3, rat TL1A, soluble, CHO-expressed, …. Put plainly: SPR 37C, mAb captured. The procedure, abridged: as §1
In turn, B1 had a Kd of 0.653 nM and a t1/2 of 0.45 h.

Take B7: the Kd came to 0.127 nM and the t1/2 stood at 1.47 h.

B8 gave an equilibrium dissociation constant (Kd) of 1.6 nM and a t1/2 of 0.433 h.

Molecule B4 gave a Kd of 0.411 nM and a t1/2 of 0.25 h.

Take B9: the affinity, expressed as Kd, was 0.046 nM and the t1/2 is 2.22 h.

B5 came in with a Kd of 0.078 nM and a t1/2 of 1.43 h.

A further assay deals with T4, mouse TL1A, soluble, E. coli-expressed, …. The assay is described as follows: SPR 25C, steady state. The procedure, abridged: as §1
In the case of B1, the binding result was “no binding (tested: up to 100 nM)”.

In the case of B2, the binding result is on record as “no binding (tested: up to 100 nM)”.

For B3, the binding result is reported as “no binding (tested: up to 100 nM)”.

With B4, the dissociation constant Kd was 62 nM.

Consider B5, for which the binding result is “no binding (tested: up to 100 nM)”.

In the case of B6, the binding result was “no binding (tested: up to 100 nM)”.

A further assay concerns the target T5, Fhm, hTL1A(Q167R), soluble, …. The assay is described as follows: ELISA, blocks FHM (10 pM) binding hDcR3-Fc. The protocol: The ability of antibodies to block human TL1A binding to its cognate receptors, the DR3 and DcR3 receptors, was measured using a competition sandwich ELISA. In addition, blocking of a human TL1A variant FHM (human TL1A Q167R) and the cynomolgus monkey (Macaca fascicularis) TL1A (MfTL1A) protein binding to the human DR3 or DcR3 receptors was measured in the same manner. Constant amounts of biotinylated human TL1A or FHM (both expressed with a 6-His tag in CHO cells) or biotinylated MfTL1A (expressed in CHO cells) were separately titrated with varying amounts of antibodies. The antibody-protein complexes were incubated in solution (1 hr, 25° C.) and then transferred to microtiter plates coated with human DR3 (hDR3) or human DcR3 (hDcR3) expressed as human IgG1 Fc fusion proteins. After one hour at 25° C. the wells were washed, and bound human or monkey TL1A was detected with streptavidin conjugated with horseradish peroxidase (HRP). Wells were developed with a TMB solution to produce a colorimetric reaction and quenched with aqueous sulfuric acid before reading absorbance at 450 nm on a Perkin-Elmer Victor X5 plate reader. A sigmoidal dose-response curve was fit to the data using the Prism™ data analysis package. […] Both fully human anti-hTL1A mAbs and comparator antibodies, i.e., control mAb1 (an anti-hTL1A antibody with heavy and light chain variable domains having the amino acid sequences corresponding to SEQ ID NOS:21 and 27, respectively, of US 2009/0280116) and control mAb3 (an anti-hTL1A antibody with heavy and light chain variable domains having the amino acid sequences corresponding to SEQ ID NOS:57 and 48, respectively, of US 2009/0280116), were included in the study. NB: No binding under the conditions tested; NT: Not tested. Concentrations of biotinylated soluble ligands: (1) 150 pM; (2) 500 pM; (3) 10 pM; and (4) 50 pM.
(In general: An ELISA detects its analyte on a solid surface through an enzyme-linked reagent.)
B1 showed a half-maximal inhibitory concentration (IC50) of 0.231 nM.

Take B2: the IC50 stood at 0.626 nM.

In the case of B4, the IC50 is 0.085 nM.

As for B9, the IC50 is 0.17 nM.

With B5, the 50% inhibitory concentration (IC50) came to 0.045 nM.

B6: the IC50 was 0.15 nM.

The term Kd denotes a measure of binding affinity in units of concentration. For orientation: IC50 means the concentration that inhibits the measured activity by half.
